Test results from paper PMC5972394.

Target: Mycobacterium thermoresistible (Mth) IMPDH ΔCBS (Mycobacterium thermoresistible)
Test: crystal structure

Substance “Mycobacterium thermoresistible (Mth) IMPDH ΔCBS (enzyme)” has a stoichiometry N of 4.
